For the experiment, the target named is SNAP tag–polyproline peptide fusion (…). As to the kind of experiment: pull-down.

Substance “Src^Y527F (from UniProt P00523 84-533) (enzyme)” came in with a percent of kinase retained by the immobilized SH3 domain ligand of 74% and a percent of total kinase retained on beads of 11%.

The record behind these values is PMC4136698.
